The text below walks through data of article PMC3619014 (Molecular pharmaceutics, 2012).

For the assay, the target named is human KDR (VEGFR-2) expressed on porcine aortic endothelial cells (PAE/KDR) (human, UniProt P35968 20-1356). Put plainly: radioligand binding.
human KDR (VEGFR-2) expressed on porcine aortic endothelial cells (PAE/KDR), sequence (P35968 20-1356): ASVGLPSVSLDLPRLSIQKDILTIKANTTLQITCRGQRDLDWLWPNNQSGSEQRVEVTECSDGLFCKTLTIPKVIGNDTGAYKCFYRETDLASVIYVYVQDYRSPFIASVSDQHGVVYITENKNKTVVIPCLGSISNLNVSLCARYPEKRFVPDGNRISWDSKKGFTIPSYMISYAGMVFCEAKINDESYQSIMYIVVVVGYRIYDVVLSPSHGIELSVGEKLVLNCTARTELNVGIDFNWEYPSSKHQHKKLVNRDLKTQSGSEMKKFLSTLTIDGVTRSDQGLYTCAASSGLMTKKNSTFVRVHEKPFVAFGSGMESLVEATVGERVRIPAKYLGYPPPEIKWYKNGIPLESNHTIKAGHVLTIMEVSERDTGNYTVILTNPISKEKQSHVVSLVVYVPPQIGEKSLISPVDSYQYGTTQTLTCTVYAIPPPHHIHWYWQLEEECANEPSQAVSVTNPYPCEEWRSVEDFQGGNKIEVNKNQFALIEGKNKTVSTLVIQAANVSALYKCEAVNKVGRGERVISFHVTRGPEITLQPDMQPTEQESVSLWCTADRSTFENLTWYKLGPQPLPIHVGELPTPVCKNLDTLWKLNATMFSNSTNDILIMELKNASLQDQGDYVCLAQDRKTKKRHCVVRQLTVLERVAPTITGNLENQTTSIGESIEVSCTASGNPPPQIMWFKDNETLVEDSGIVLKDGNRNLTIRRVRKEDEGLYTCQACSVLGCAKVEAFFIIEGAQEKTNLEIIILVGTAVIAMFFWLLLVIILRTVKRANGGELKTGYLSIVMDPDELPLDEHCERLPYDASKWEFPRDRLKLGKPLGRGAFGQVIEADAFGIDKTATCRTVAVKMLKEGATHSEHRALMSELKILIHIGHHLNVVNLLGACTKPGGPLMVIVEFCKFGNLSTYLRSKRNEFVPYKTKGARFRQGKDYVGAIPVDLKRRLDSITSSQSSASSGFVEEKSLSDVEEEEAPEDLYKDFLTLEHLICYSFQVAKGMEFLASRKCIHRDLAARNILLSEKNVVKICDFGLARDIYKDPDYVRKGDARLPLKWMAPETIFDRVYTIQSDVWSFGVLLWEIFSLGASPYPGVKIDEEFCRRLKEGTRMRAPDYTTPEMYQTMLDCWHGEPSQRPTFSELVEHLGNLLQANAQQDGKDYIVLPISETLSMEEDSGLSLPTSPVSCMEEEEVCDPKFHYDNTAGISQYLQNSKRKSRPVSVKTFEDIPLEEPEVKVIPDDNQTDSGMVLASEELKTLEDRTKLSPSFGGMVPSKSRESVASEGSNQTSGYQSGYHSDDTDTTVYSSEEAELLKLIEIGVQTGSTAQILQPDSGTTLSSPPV

B1: NOTA-K3-VEGF121 (ligand)
chain: KKKAPMAEGGGQNHHEVVKFMDVYQRSYCHPIETLVDIFQEYPDEIEYIFKPSCVPLMRCGGCCNDEGLECVPTEESNITMQIMRIKPHQGQHIGEMSFLQHNKCECRPKKDRARQEKCDKPRR
modifications: NOTA (from p-SCN-Bn-NOTA) on lysine residues, estimated 1~2 NOTA residues in each NOTA-K3-VEGF121; positions not determined
Turning to B1, the half-inhibitory concentration (IC50) came to 1.5 nM.
